Patent US5457182A (Merck & Co., Inc., priority 1994, dated 1995)

How the values were obtained:
[1] = Peptidyl-prolyl cis-trans isomerase (PPIase) activity; assay type: biochemical; settings: homogeneous FKBP12 vs partially pure (about 25%) FKBP12.6
Description: PPIase assays were performed as described (Fischer, G., et al., Nature, 337,476-478 (1989)) with the following changes: the peptide substrate used was N-succinyl-Ala-Leu-Pro-Phe-p-nitroanilide (BACHEM, California) at a final concentration of 72 μM and chymotrypsin (Sigma) was present in the assay at a concentration of 6 μM. The total reaction volume was 1.5 ml. The release of p-nitroanilide by chymotrypsin was measured by following the increase in absorbance at 405 nm on a Beckman DU68 spectrophotometer. After an initial rapid rise in absorbance due to hydrolysis of the trans peptide, the slow secondary increase in absorbance which reflects the cis-to-trans conversion of the peptide by the PPIase was measured at 3 sec intervals out to 1.5 min. The data were fitted to a simple first-order rate equation and the first-order rate constant, k (s^-1), calculated.

calcineurin [2] = assay: FKBP.FK-506.CaN complex-formation assay (size-exclusion column, Western analysis); assay type: binding, bovine; settings: partially purified FKBPs, CaM, Ca^2+, Mg^2+ and FK-506
Description: In the modified assay, samples were assayed by Western analysis using the anti-C-terminal peptide antibody in order to identify FKBP12 and FKBP12.6 in various chromatographic fractions.
In the first experiment, FKBP12 and FKBP12.6 were partially purified by preparative HPLC gel filtration chromatography on a Bio-Sil TSK-125 column. These partially purified FKBPs (containing both FKBP12 and FKBP12.6) are devoid of CaN which separates completely from them on this column. FKBP12 and FKBP12.6 co-elute at fractions 26 and 27 on the analytical sizing column (G2000SW) used in this experiment. […] Because this crude FKBP material also contains FKBP12.6, it can also be observed migrating slightly above FKBP12 in FIG. 4A.
To more carefully examine the requirements for FKBP12.6 complex formation with CaN, experiments were conducted using purified FKBP12.6.
The incubation buffer contained 20 mM Tris (pH 7.5), 100 mM NaCl, 6 mM MgCl2, 0.1 mM CaCl2, 0.1 mg/ml BSA, and 0.5 mM dithiothreitol. The incubation reaction was chromatographed on a Bio-Sil SEC400 HPLC column (Bio-Rad) at a flow rate of 1 ml/min and 1 min fractions were collected. The chromatography buffer was the same as the incubation buffer except that BSA was omitted. 30 μl of fractions 19-29 were subjected to electrophoresis on a 16% Novex Tris-Glycine gel and Western analysis was performed as described above.

calcineurin [3] = assay: Calcineurin phosphatase assay; assay type: biochemical, bovine; settings: in presence of FK-506, CaN, CaM, Ca^2+, Mg^2+; read-out: IC50 for inhibition of CaN
Description: For a side-by-side comparison, FKBP12 was also tested for its ability to inhibit calcineurin in the presence of drug.
The calcineurin phosphatase assay is a modified version of previous assays (Liu, J., et al., Cell, 66, 807-815 (1991); Manalan, A., et al., Proc. Natl. Acad. Sci. U.S.A., 80, 4291-4295 (1983)). Reaction mixtures ([…] contained: 40 mM Tris (pH 8), 100 mM NaCl, 6 mM Mg(OAc)2, 0.1 mM CaCl2, 0.1 mg/ml BSA, 0.5 mM dithiothreitol, 190 nM bovine brain calmodulin (Sigma), 3 nM bovine brain calcineurin (Sigma), and 40 μM [^33 P]RII peptide (Peptides International) (600 cpm/pmole). Reaction mixtures were pre-incubated for 30 min at 30° C. prior to addition of the labeled peptide. The reaction was initiated by addition of the peptide and the dephosphorylation reaction was allowed to proceed for 10 min at 30° C. The reaction was terminated by the addition of 0.5 ml of 5% trichloroacetic acid containing 100 mM sodium phosphate (stop buffer) and applied to a 0.5 ml Dowex 50W-X8, H^+ column. Free [^33 P]phosphate was eluted from the column with 0.5 ml of stop buffer followed by 0.5 ml of water.

- slope of PPIase rate relative to FKBP12.6 [1]: 4.1 fold
- IC50 (calcineurin [3]): 9.9 nM
B1: FKBP12: abundant, cytosolic 11.8 kDa protein termed the FK-506 binding protein; bovine sequence SEQ ID NO:2 (protein)
chain: GVQVETISPGDGRTFPKRGQTCVVHYTGMLEDGKKFDSSRDRNKPFKFVLGKQEVIRGWEEGVAQMSVGQRAKLTISPDYAYGATGHPGIIPPNATLIFDVELLKLE
- complex formation with CaN (calcineurin [2]): a significant fraction of FKBP12 is in the FKBP12.FK-506-CaN complex
